Source: patent publication US20090029005A1
“And” between values parts separate entries of the source, which are not always exact repeats. Equal entries are not always repeated.

Each substance was assayed against Angiotensin-I Converting Enzyme (ACE) (assay: cell-based or functional assay).

Sequence of Ovotransferrin (TRFE_CHICK), not hydrolysed and not digested (P02789 20-705 limits assumed): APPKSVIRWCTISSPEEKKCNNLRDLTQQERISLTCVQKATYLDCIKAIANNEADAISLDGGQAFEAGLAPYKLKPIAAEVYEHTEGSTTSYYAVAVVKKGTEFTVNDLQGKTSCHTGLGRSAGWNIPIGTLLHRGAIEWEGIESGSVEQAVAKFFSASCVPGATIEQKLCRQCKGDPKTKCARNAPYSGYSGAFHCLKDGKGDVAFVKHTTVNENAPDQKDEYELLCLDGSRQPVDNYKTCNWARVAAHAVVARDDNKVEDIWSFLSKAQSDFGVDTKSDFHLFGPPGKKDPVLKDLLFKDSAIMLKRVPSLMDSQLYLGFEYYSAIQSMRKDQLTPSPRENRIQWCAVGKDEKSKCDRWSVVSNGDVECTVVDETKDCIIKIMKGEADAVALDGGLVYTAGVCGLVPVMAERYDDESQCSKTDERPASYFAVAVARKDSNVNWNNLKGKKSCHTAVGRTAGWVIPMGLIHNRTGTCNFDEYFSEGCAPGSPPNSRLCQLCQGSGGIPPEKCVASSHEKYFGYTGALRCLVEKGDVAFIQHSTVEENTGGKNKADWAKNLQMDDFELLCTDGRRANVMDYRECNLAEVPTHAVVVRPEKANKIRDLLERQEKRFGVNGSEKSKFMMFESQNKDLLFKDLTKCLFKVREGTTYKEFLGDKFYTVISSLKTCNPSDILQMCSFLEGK

Row | Substance | ACE inhibition (% inhibition) at 0.5 mg/ml | inhibition (%) at 0.0625 mg/ml | inhibition (%) at 0.125 mg/ml | inhibition (%) at 0.25 mg/ml | inhibition (%) at 0.5 mg/ml | inhibition (%) at 1 mg/ml | inhibition (%) at 2 mg/ml | ACE activity IC50; total hydrolysis time 11.5 hours (batch for animal study) [µg/mL] | ACE inhibition IC50; hydrolysis 4 h, 2% enzyme, DH 0% [µg/mL] | ACE inhibition IC50; hydrolysis 5 h, 4% enzyme, DH 5.0% [µg/mL]
1 | Ovotransferrin/Promod 258P hydrolysate | 62% and 58% and 66% | 18.4% and -1% | 40% and 18.8% | 41.1% and 45.1% | 57.7% and 66.3% | 85.2% and 86.2% | 121% and 104% |  |  | 
2 | Ovotransferrin/PEM hydrolysate | 55% and 52% and 57% | -19.4% and -10.7% |  | 9.8% and 31.8% | 52.4% and 56.6% | 69.1% and 73.8% |  |  |  | 
3 | Ovotransferrin/PTN hydrolysate | 64% and 68% and 60% |  | 28.3% and 37.9% | 51% and 49.8% | 67.8% and 59.9% | 80.3% and 84.3% |  |  |  | 
4 | Ovalbumin/PEM hydrolysate |  |  |  |  | 51.4% and 27.7% | 57.3% and 36.3% | 61% and 39.1% |  |  | 
5 | Lysozyme/Protex 6L hydrolysate | 71% and 74% and 69% | 42.4% and 30.9% | 42.2% and 44.6% | 65.8% and 58.3% | 73.9% and 68.7% | 83% and 83.5% |  |  |  | 
6 | Ovomucin/PEM hydrolysate |  | 25.9% and 5.5% | 13.3% and 9.1% | 41.1% and 19.6% and 36.1% | 66.3% and 43.1% and 48.6% | 51.3% and 62.3% and 66% | 73.1% and 78.1% and 88% |  |  | 
7 | Ovalbumin hydrolysate (enzyme of the column not resolvable: PEM, Newlase F or Alcalase) |  | -6.8% and 0% | 0% and 1.6% | 17.4% and 13.4% | 31.1% and 24.6% | 18.2% and 41.3% | 87.8% and 64.4% |  |  | 
8 | EggWhite 1102/Protex 6L hydrolysate |  | 16.3% and 4.9% | 24.7% and 19% | 33.2% and 41.7% | 47% and 49.2% | 58.4% and 66% | 60.2% and 71.8% |  |  | 
9 | Ovalbumin/Alcalase hydrolysate |  | 23.4% and 3.1% | 7.3% and 16.2% |  |  |  | 89.2% and 74.8% |  |  | 
10 | Ovalbumin/Promod 258P hydrolysate | 53% and 49% and 58% | 14% and 8.7% | 40.7% and 23.2% | 37.3% and 33.8% | 48.6% and 57.6% | 87.5% and 67% | 103% and 78.2% |  |  | 
11 | Ovomucin/Alcalase hydrolysate | 56% and 57% and 55% | 24% and 22% | 25.5% and 33.2% | 37.1% and 43.8% | 57.3% and 55.2% | 67.2% and 69.9% | 81.7% and 86% | 230 | > 2000 | 760
12 | Egg yolk/PEM hydrolysate | 58% and 62% and 53% | 15.4% and 25.4% | 28.8% and 52.8% | 45.3% and 36.6% | 62.1% and 52.9% | 69.8% and 64.6% | 99.7% and 96.6% |  |  | 
13 | Ovomucin/Protex 6L hydrolysate | 59% and 69% and 49% | 24.9% and 5.1% | 31.4% and 16.3% | 47.8% and 30.5% | 68.5% and 49% | 87.6% and 65% | 90.8% and 65.8% |  |  | 
14 | EggWhite 1102/Promod 258P hydrolysate |  |  |  | 42.8% and 19.5% | 62% and 42.7% | 75% and 61.9% | 91.3% and 76.8% |  |  | 
15 | Ovotransferrin/Newlase F hydrolysate | 70% and 71% and 69% | 26.9% and 28.7% | 33.7% and 50.9% | 58.6% and 51.6% | 70.5% and 69.1% | 96.1% and 83.1% |  |  |  | 
16 | EggWhite 1101/Protex 6L hydrolysate |  | 17% and 11.9% | 20.2% and 23% | 31.3% and 33.3% | 50.6% and 44.4% | 63.2% and 62.2% |  |  |  | 
17 | Egg yolk/PTN hydrolysate |  |  |  | 27.6% and 44.3% |  | 75.7% and 59.9% | 96.9% and 78.1% |  |  | 
18 | Ovotransferrin/Protex 6L hydrolysate | 59% and 60% | 13.7% and 12% | 30.6% and 19.1% | 44.4% and 34.4% | 60.2% and 58.6% | 76.8% and 70.2% | 97.3% and 88% |  |  | 
19 | Lysozyme/PTN hydrolysate | 52% and 62% and 42% | 18.9% and 6.4% |  |  | 62.4% and 42% | 75.7% and 75.8% | 79.7% and 103% |  |  | 
20 | Ovomucin/Newlase F hydrolysate |  | -13.7% and 7.8% |  | 30.6% and 18.6% | 42.5% and 31.3% | 45.7% and 49.2% | 59.6% and 49.2% |  |  | 
21 | Lysozyme/Alcalase hydrolysate | 70% and 82% and 58% | 35.2% and 14.3% |  |  | 82.1% and 58.1% | 81.3% and 79.9% | 126% and 102% |  |  | 

Other lines, results leading:

Row | ACE inhibition (% inhibition) at 0.5 mg/ml | inhibition (%) at 0.0625 mg/ml | inhibition (%) at 0.125 mg/ml | inhibition (%) at 0.25 mg/ml | inhibition (%) at 0.5 mg/ml | inhibition (%) at 1 mg/ml | inhibition (%) at 2 mg/ml | ACE activity IC50; total hydrolysis time 11.5 hours (batch for animal study) [µg/mL] | ACE inhibition IC50; hydrolysis 4 h, 2% enzyme, DH 0% [µg/mL] | ACE inhibition IC50; hydrolysis 5 h, 4% enzyme, DH 5.0% [µg/mL] | Substance
22 | 57% and 51% | 15.5% and 21.6% | 21.7% and 18.2% | 24.1% and 36.1% | 51.3% and 57.3% | 69.5% and 80% |  |  |  |  | Egg yolk/Newlase F hydrolysate
23 | 56% and 55% and 58% | 29.2% and 27.3% | 38% and 35.1% | 49.7% and 49.5% | 54.7% and 58% |  | 102% and 123% |  |  |  | Lysozyme/PEM hydrolysate
24 |  | 15% and 22.4% | 26.6% and 37% | 41.3% and 62.7% |  |  | 105% and 89.9% |  |  |  | Egg yolk/Protex 6L hydrolysate
25 | 68% and 76% and 61% | 30.9% and 6.5% | 45.7% and 25.1% | 59.1% and 41.9% | 75.8% and 61% |  | 100% |  |  |  | Egg yolk/Alcalase hydrolysate
26 |  | 19.6% and 10.7% | 34.2% and 12.8% | 46.5% and 32.1% | 63.1% and 39.9% | 66.5% and 71.7% |  |  |  |  | EggWhite 1101/Alcalase hydrolysate
27 | 50% and 55% and 45% |  | 19.7% and 16.9% | 43.8% and 21% | 55.3% and 44.7% | 65.5% and 50.9% |  |  |  |  | Ovomucin/PTN hydrolysate
28 |  | 3.7% | 16.3% | 23.5% | 45.8% | 55.9% | 82.5% |  |  |  | Ovalbumin/Newlase F hydrolysate
29 |  | 27.9% and 20% | 40.3% and 36.2% | 45% and 33.9% | 62.8% and 47.2% | 77.9% and 78.4% |  |  |  |  | EggWhite 1101/Promod 258P hydrolysate
30 |  | 18.2% and 2.4% | 36.4% and 16.7% | 43% and 23.3% | 58.8% and 48.1% | 76.9% and 67% | 86.3% and 65.8% |  |  |  | EggWhite 1102/Alcalase hydrolysate

Same assay, conditions: not given

Row | ACE inhibition IC50; hydrolysis 5 h, 4% enzyme, DH 12.0 [µg/mL] | ACE inhibition IC50; hydrolysis 6 h, 4% enzyme, DH 7.7% [µg/mL] | ACE inhibition IC50; hydrolysis 7 h, 6% enzyme, DH 12.9% [µg/mL] | ACE inhibition IC50; hydrolysis 7.5 h, 6% enzyme, DH 15.0% [µg/mL] | ACE inhibition IC50; hydrolysis 8 h, 6% enzyme, DH 21.7 [µg/mL] | ACE inhibition IC50; hydrolysis 10.5 h, 8% enzyme, DH 21.2 [µg/mL] | ACE inhibition IC50; hydrolysis 10.5 h, 8% enzyme, DH 23.9 [µg/mL] | ACE inhibition IC50; hydrolysis 13.5 h, 10% enzyme, DH 22.0 [µg/mL] | ACE inhibition IC50; hydrolysis 16.5 h, 12% enzyme, DH 21.1 [µg/mL] | ACE inhibition (%) at 0.019 mg/ml, Hip-His-Leu/TNBS microtiter assay [%] | Substance
31 | 540 | 660 | 450 | 430 | 390 | 250 | 210 | 180 | 180 |  | Ovomucin/Alcalase hydrolysate
32 |  |  |  |  |  |  |  |  |  | -0.4 | Ovomucin, not hydrolysed and not digested
33 |  |  |  |  |  |  |  |  |  | 0.7 | Ovotransferrin (TRFE_CHICK), not hydrolysed and not digested (from UniProt P02789 20-705)

Same assay, conditions: not given

Row | ACE inhibition (%) at 0.056 mg/ml, Hip-His-Leu/TNBS microtiter assay [%] | ACE inhibition (%) at 0.167 mg/ml, Hip-His-Leu/TNBS microtiter assay [%] | ACE inhibition (%) at 0.500 mg/ml, Hip-His-Leu/TNBS microtiter assay [%] | inhibition (%) at 2 mg/ml (*Absorption above 3) | Substance
34 | 5.2 | 2.2 | 2.1 |  | Ovomucin, not hydrolysed and not digested
35 |  |  |  | 64.3% and 46.8% | Ovotransferrin/Newlase F hydrolysate
36 |  | -4.7 |  |  | Lysozyme (Lysozyme C, LYC_CHICK), not hydrolysed and not digested (from UniProt P00698 19-147) (enzyme)
37 | -4.1 | 0.7 | -0.3 |  | Ovotransferrin (TRFE_CHICK), not hydrolysed and not digested (from UniProt P02789 20-705)

What follows are substances tested against Angiotensin-I Converting Enzyme (assay: cell-based or functional assay).

Row | IC50 (mg/mL), ACE inhibition (Hip-His-Leu assay) [mg/mL] | Substance
38 | 0.46 | Egg White/Alcalase (LS 250903)
